# Test results from the supplement of paper PMC7125110.
# ± gives the standard error. For some of these results: This sample holds only a part of the variants without activity.
# B1: glmS ribozyme (parent)
# chain: AUAAAAGCGCCAGAACUACAGAAAUGUAGUUGACGAGGAGGAGGUUUAUCGAAUUUUCGGCGGAUGCCUCCAAA
# Tests used:
# Settings in all cases: with glucosamine-6-phosphate
# glucosamine-6-phosphate [1] = variants of: B1; assay: kcat; higher = faster cleavage; RNA array
# In short: (§1)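 Glucosamine-6-phosphate in HEPES/KCl/Mg(OAc)2 buffer, at 40 μM to 10 mM, was flowed over barcoded ribozyme variants transcribed in situ by E. coli RNA polymerase on sequenced MiSeq chips. Tracking was through a hybridised Cy3 probe at 37 °C. kobs, kcat and KM came from exponential decay fits and weighted Michaelis–Menten fits of normalised per-tile medians.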
# glucosamine-6-phosphate [2] = variants of: B1; assay: KM; higher = weaker cofactor use; RNA array
# In short: as §1
# glucosamine-6-phosphate [3] = variants of: B1; assay: self-cleavage kobs at 640 uM GlcN6P; higher = faster cleavage; RNA array
# In short: as §1
# glucosamine-6-phosphate [4] = variants of: B1; assay: self-cleavage kobs at 2500 uM GlcN6P; higher = faster cleavage; RNA array
# In short: as §1
# glucosamine-6-phosphate [5] = variants of: B1; assay: self-cleavage kobs at 10000 uM GlcN6P; higher = faster cleavage; RNA array
# In short: as §1
# glucosamine-6-phosphate [6] = variants of: B1; assay: self-cleavage kobs at 160 uM GlcN6P; higher = faster cleavage; RNA array
# In short: as §1
# glucosamine-6-phosphate [7] = variants of: B1; assay: self-cleavage kobs at 40 uM GlcN6P; higher = faster cleavage; RNA array
# In short: as §1
Variant,kcat (glucosamine-6-phosphate [1]) [s⁻¹],KM (glucosamine-6-phosphate [2]) [µM],self-cleavage kobs at 640 uM GlcN6P (glucosamine-6-phosphate [3]) [s⁻¹],self-cleavage kobs at 2500 uM GlcN6P (glucosamine-6-phosphate [4]) [s⁻¹],self-cleavage kobs at 10000 uM GlcN6P (glucosamine-6-phosphate [5]) [s⁻¹],self-cleavage kobs at 160 uM GlcN6P (glucosamine-6-phosphate [6]) [s⁻¹],self-cleavage kobs at 40 uM GlcN6P (glucosamine-6-phosphate [7]) [s⁻¹]
A12U G13U,0.000141 ± 9.1e-06,1130 ± 200,5.07e-05 ± 9.6e-06,9.95e-05 ± 1.1e-05,0.000123 ± 1.8e-05,–,–
U31A G41A,0.000876 ± 0.00042,–,0.000163 ± 3.6e-05,0.00078 ± 0.00012,0.000647 ± 0.00014,8.73e-05 ± 1.5e-05,–
A6C A39G,6.38e-05 ± 7.8e-07,439 ± 33,–,5.42e-05 ± 1.9e-05,6.11e-05 ± 1.4e-05,–,–
A15G U46G,0.00908 ± 0.00054,2020 ± 170,0.00198 ± 0.00026,0.00538 ± 0.00091,0.00757 ± 0.00068,0.000667 ± 0.0001,0.000184 ± 2e-05
C50U G63C,< 1e-05,–,–,–,< 1e-05,–,–
G37C U54A U69G,3.07e-05 ± 5e-06,–,–,–,–,–,–
A15U G29C,0.00199 ± 0.00051,2340 ± 910,0.000432 ± 7.6e-05,0.000809 ± 0.00016,0.00191 ± 0.0003,0.000116 ± 3.3e-05,4.56e-05 ± 9.9e-06
U54A U55A,0.044 ± 0.016,1290 ± 540,–,–,0.0388 ± 0.0094,0.00297 ± 0.001,0.00147 ± 0.00017
G44C,0.0002 ± 2.4e-05,1980 ± 570,4.33e-05 ± 1.8e-06,0.000127 ± 2.9e-06,0.000159 ± 3.5e-06,–,–
C50U C68A,3.06e-05 ± 9.8e-06,–,4.9e-05 ± 1.9e-05,3.28e-05 ± 1.5e-05,–,–,–
C11A A64G,0.000168 ± 1.1e-05,1190 ± 250,5.53e-05 ± 1.3e-05,0.000135 ± 2.7e-05,0.000147 ± 1.6e-05,–,–
A12U A14U,0.00461 ± 0.0012,2000 ± 750,0.00119 ± 0.00018,0.00188 ± 0.00031,0.00449 ± 0.00046,0.000269 ± 5.6e-05,0.00011 ± 1.2e-05
G41U U56A C70A,0.0279 ± 0.012,–,0.0096 ± 0.0018,0.033 ± 0.0088,0.0192 ± 0.0059,0.00226 ± 0.00043,–
G62C U69G,1.62e-05 ± 2.9e-06,–,–,–,–,–,–
U30C U54A,0.000514 ± 7.7e-05,3790 ± 1100,8.25e-05 ± 2.1e-05,0.000182 ± 5.3e-05,0.000378 ± 5.6e-05,–,–
C34G U69A,3.79e-05 ± 1.1e-05,–,5.16e-05 ± 1.3e-05,3.05e-05 ± 1.3e-05,–,–,–
